Assay results as given in patent US20090149339A1 (published 2009).
Ends that are not written are not given here. * marks the point of attachment. Biotin = O=C1N[C@H]2[C@H](CS[C@H]2CCCCC(=O)*)N1

B1: CD3n C-terminal PL peptide AA4L, biotinylated (peptide)
peptide: Biotin-SVFSIPTLWSPWPPSSSSQL
notes: also called CD3-eta
B2: CDW128A (IL8RA) C-terminal PL peptide AA29.1L, biotinylated (peptide)
peptide: Biotin-ARHRVTSYTSSSVNVSSNL
B3: CD34 C-terminal PL peptide AA7L, biotinylated (peptide)
peptide: Biotin-QATSRNGHSARQHVVADTEL
B4: CLASP-1 C-terminal PL peptide AA1L, biotinylated (peptide)
peptide: Biotin-ISKATPALPTVSISSSAEV
notes: also called AA1L-R
B5: CD49F (Aform, alpha 6) C-terminal PL peptide AA12L, biotinylated (peptide)
peptide: Biotin-HKAEIHAQPSDKERLTSDA

Experiments:
[1] = molecular target: T1, GST-PSD95 PDZ domain fusion protein (human post-synaptic density protein 95 AA387-724; PDZ domains 1-3 of 3) (human, UniProt P08515 1-218 = GST); test: A assay
T1 sequence (P08515 1-218, tags or fused parts left off): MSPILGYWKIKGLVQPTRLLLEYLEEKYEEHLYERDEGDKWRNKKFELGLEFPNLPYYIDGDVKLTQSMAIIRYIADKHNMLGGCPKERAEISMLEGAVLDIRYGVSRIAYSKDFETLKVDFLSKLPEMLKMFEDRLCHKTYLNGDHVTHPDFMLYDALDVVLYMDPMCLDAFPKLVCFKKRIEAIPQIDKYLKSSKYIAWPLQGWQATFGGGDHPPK

[2] = molecular target: T2, GST-41.8 kD PDZ domain fusion protein (hypothetical 41.8 kD protein AA4-85; PDZ domain 1 of 1) (UniProt P08515 1-218 = GST); test: A and G assays
T2 construct: also called hypoth
T2 sequence (P08515 1-218, tags or fused parts left off): as above

[3] = molecular target: GST-LIM PDZ domain fusion protein (Human LIM protein AA29-112; PDZ domain 1 of 1) (human, UniProt P08515 1-218 = GST); test: A/G assays
[4] = molecular target: T3, GST-TAX43 PDZ domain fusion protein (human tax interaction protein 43 AA15-85; PDZ domain 1 of 1) (human, UniProt P08515 1-218 = GST); test: A/G assays
T3 construct: also called TX 43
T3 sequence (P08515 1-218, tags or fused parts left off): as above

[5] = molecular target: GST-TIAM1 PDZ domain fusion protein (T-lymphoma invasion and metastasis inducing protein 1 AA1001-1088); PDZ 1 … (UniProt P08515 1-218 = GST); test: A/G assays
Sequence of GST-TIAM1 PDZ domain fusion protein (T-lymphoma invasion and metastasis inducing protein 1 AA1001-1088); PDZ 1 … (P08515 1-218, tags or fused parts left off): as above

[6] = molecular target: GST-prIL16 PDZ domain fusion protein (putative interleukin 16 precursor AA170-383; PDZ domains 1-2 of 2) (UniProt P08515 1-218 = GST); test: A/G assays
[7] = molecular target: T4, GST-NeDLG PDZ domain fusion protein (presynaptic protein sao102, neuroendocrine-dlg; PDZ domains 1-2 of 3) (UniProt P08515 1-218 = GST); test: A/G assays
T4 construct: also called NeDLG1
T4 sequence (P08515 1-218, tags or fused parts left off): as above

[8] = molecular target: T5, GST-RGS12 PDZ domain fusion protein (human regulator of G-protein signalling 12 AA35-103; PDZ domain 1 of 1) (human, UniProt P08515 1-218 = GST); test: A/G assays
T5 construct: also called RSG12
T5 sequence (P08515 1-218, tags or fused parts left off): as above

[9] = molecular target: T6, GST-KIAA0303 PDZ domain fusion protein (KIAA0303 AA652-742; PDZ domain 1 of 1) (UniProt P08515 1-218 = GST); test: A/G assays
T6 construct: also called K303
T6 sequence (P08515 1-218, tags or fused parts left off): as above

[10] = molecular target: T7, GST-TAX33 PDZ domain fusion protein (tax interaction protein 33 AA73-162; PDZ domain 1 of 1) (UniProt P08515 1-218 = GST); test: A/G assays
T7 construct: also called TX33

[11] = molecular target: T8, GST-CBP PDZ domain fusion protein (Cytohesin binding protein HE AA85-175; PDZ domain 1 of 1) (UniProt P08515 1-218 = GST); test: A/G assays
T8 construct: also called Prot
T8 sequence (P08515 1-218, tags or fused parts left off): as above

[12] = molecular target: GST-PTN-4 PDZ domain fusion protein (protein-tyrosine phosphatase meg1 AA774-862; PDZ domain 1 of 1) (UniProt P08515 1-218 = GST); test: A/G assays
Sequence of GST-PTN-4 PDZ domain fusion protein (protein-tyrosine phosphatase meg1 AA774-862; PDZ domain 1 of 1) (P08515 1-218, tags or fused parts left off): as above

[13] = molecular target: GST-MPP1 PDZ domain fusion protein (55 Kd erythrocyte membrane protein AA101-186; PDZ domain 1 of 1) (UniProt P08515 1-218 = GST); test: A/G assays
Sequence of GST-MPP1 PDZ domain fusion protein (55 Kd erythrocyte membrane protein AA101-186; PDZ domain 1 of 1) (P08515 1-218, tags or fused parts left off): as above

[14] = molecular target: T9, GST-CASK PDZ domain fusion protein (CASK AA495-584; PDZ domain 1 of 1) (mouse, UniProt P08515 1-218 = GST); test: A/G assays
T9 construct: also called mCASK
T9 sequence (P08515 1-218, tags or fused parts left off): as above

[15] = molecular target: T10, GST-TAX2 PDZ domain fusion protein (human tax interaction protein 2 AA54-140; PDZ domain 1 of 1) (human, UniProt P08515 1-218 = GST); test: A/G assays
T10 construct: also called TX 2
T10 sequence (P08515 1-218, tags or fused parts left off): as above

[16] = molecular target: T11, GST-TAX40 PDZ domain fusion protein (human tax interaction protein 40 AA35-137; PDZ domain 1 of 1) (human, UniProt P08515 1-218 = GST); test: A/G assays
T11 construct: also called TX 40
T11 sequence (P08515 1-218, tags or fused parts left off): as above

[17] = molecular target: T12, GST-MPP2 PDZ domain fusion protein (maguk p55 subfamily member 2 (DLG2) AA185-273; PDZ domain 1 of 1) (UniProt P08515 1-218 = GST); test: A/G assays
T12 construct: also called MMP2
T12 sequence (P08515 1-218, tags or fused parts left off): as above

[18] = molecular target: T13, GST-SYN1a PDZ domain fusion protein (alpha1-syntrophin AA96-189; PDZ domain 1 of 1) (UniProt P08515 1-218 = GST); test: A/G assays
T13 construct: also called SYN 1 alpha; SYNTR 1 alpha
T13 sequence (P08515 1-218, tags or fused parts left off): as above

[19] = molecular target: GST-MINT3 PDZ domain fusion protein (human MINT3 AA11-52; PDZ domain 1 of 1) (human, UniProt P08515 1-218 = GST); test: A/G assays
Sequence of GST-MINT3 PDZ domain fusion protein (human MINT3 AA11-52; PDZ domain 1 of 1) (P08515 1-218, tags or fused parts left off): as above

[20] = molecular target: GST-AF6 PDZ domain fusion protein (af-6 protein AA985-1077; PDZ domain 1 of 1) (UniProt P08515 1-218 = GST); test: A/G assays
[21] = molecular target: GST-NOS1 PDZ domain fusion protein (human neuronal nitric oxide synthase; PDZ domain 1 of 1) (human, UniProt P08515 1-218 = GST); test: A/G assays
Sequence of GST-NOS1 PDZ domain fusion protein (human neuronal nitric oxide synthase; PDZ domain 1 of 1) (P08515 1-218, tags or fused parts left off): as above

[22] = molecular target: GST-DVL1 PDZ domain fusion protein (human dishevelled segment polarity protein homolog AA248-340); PDZ domain … (human, UniProt P08515 1-218 = GST); test: A/G assays
Sequence of GST-DVL1 PDZ domain fusion protein (human dishevelled segment polarity protein homolog AA248-340); PDZ domain … (P08515 1-218, tags or fused parts left off): as above

[23] = molecular target: GST-LIMK2 PDZ domain fusion protein (human LIM domain kinase 2 AA185-275; PDZ domain 1 of 1) (human, UniProt P08515 1-218 = GST); test: A/G assays
Sequence of GST-LIMK2 PDZ domain fusion protein (human LIM domain kinase 2 AA185-275; PDZ domain 1 of 1) (P08515 1-218, tags or fused parts left off): as above

[24] = molecular target: T14, GST-KIAA0316 PDZ domain fusion protein (KIAA0316 AA197-284; PDZ domain 1 of 1) (UniProt P08515 1-218 = GST); test: A/G assays
T14 construct: also called K316
T14 sequence (P08515 1-218, tags or fused parts left off): as above

[25] = molecular target: T15, GST-KIAA0559 PDZ domain fusion protein (KIAA0559 AA766-870; PDZ1 of 1) (UniProt P08515 1-218 = GST); test: A/G assays
T15 construct: also called K559
T15 sequence (P08515 1-218, tags or fused parts left off): as above

[26] = molecular target: T4, GST-NeDLG PDZ domain fusion protein …; test: A assay
[27] = molecular target: T1, GST-PSD95 PDZ domain fusion protein …; test: A/G assays
[28] = molecular target: T2, GST-41.8 kD PDZ domain fusion protein …; test: A/G assays
[29] = molecular target: T4, GST-NeDLG PDZ domain fusion protein …; test: G assay

| Binder | binding result [3] | binding result [4] | binding result [5] | binding result [6] | binding result [8] | binding result [9] | binding result [10] | binding result [11] | binding result [12] | binding result [13] | binding result [14] | binding result [15] | binding result [16] | binding result [17] | binding result [18] | binding result [19] | binding result [20] | binding result [21] | binding result [22] | binding result [23] | other results |
| --- | --- | --- | --- | --- | --- | --- | --- | --- | --- | --- | --- | --- | --- | --- | --- | --- | --- | --- | --- | --- | --- |
| B1 | no binding | no binding | no binding | no binding | no binding | no binding | no binding | no binding | no binding | no binding | no binding | no binding | no binding | no binding | no binding | no binding | no binding | no binding | no binding | no binding | binding result [1]: binds; binding result [2]: binds; binding result [7]: no binding; binding result [24]: no binding; binding result [25]: no binding |
| B2 | no binding | no binding | no binding | no binding | no binding | no binding | no binding | no binding | no binding | no binding | no binding | no binding | no binding | no binding | no binding | no binding | no binding | no binding | no binding | no binding | binding result [26]: binds; binding result [27]: no binding; binding result [28]: no binding; binding result [24]: no binding; binding result [25]: no binding |
| B3 | no binding | no binding | no binding | no binding | no binding | no binding | no binding | no binding | no binding | no binding | no binding | no binding | no binding | no binding | no binding | no binding | no binding | no binding | no binding | no binding | binding result [1]: binds; binding result [29]: binds; binding result [28]: no binding; binding result [24]: no binding; binding result [25]: no binding |
| B4 | no binding | no binding | no binding | no binding | no binding | no binding | no binding | no binding | no binding | no binding | no binding | no binding | no binding | no binding | no binding | no binding | no binding | no binding | no binding | no binding | binding result [1]: binds; binding result [29]: binds; binding result [28]: no binding; binding result [24]: no binding; binding result [25]: no binding |
| B5 | no binding | no binding | no binding | no binding | no binding | no binding | no binding | no binding | no binding | no binding | no binding | no binding | no binding | no binding | no binding | no binding | no binding | no binding | no binding | no binding | binding result [2]: binds; binding result [7]: no binding; binding result [27]: no binding; binding result [24]: no binding; binding result [25]: no binding |
